The values that follow come from PMC5527686 (Journal of molecular biology, 2017).

The data set “SEC” deals with the molecule itself. Briefly: SEC.
The data set “AUC” concerns the molecule itself. Put plainly: AUC.

Substitutions are numbered along the chain they refer to. Names may count otherwise.

B1: IreB Y79E (purified recombinant) (natural protein, Enterococcus faecalis)
chain: MGFTDETVRFDFDDNRKKAISETLETVYRALEEKGYNPINQIVGYLLSGDPAYIPRYQDARNLIRRHERDEIMEELTKEYLANHGIDIK
B1: the “stoichiometry N” value in the data set “SEC” was 2.

B2: IreB L81W (purified recombinant) (natural protein, Enterococcus faecalis)
chain: B1 chain with E79Y, L81W
For the protein B2, the “stoichiometry N” value in “SEC” was found to be 2.

B3: IreB (purified recombinant wild-type) (natural protein)
chain: B1 chain with E79Y
On to B3, for which the figures for the “stoichiometry N” value in “AUC” and in “SEC” were 2.05 and 2, respectively.
